Test results: JP2007530675A (dated 2007)

B1: Luc90 (antibody, V domains shown)
VH: QVQLQQPGAELVRPGASVKLSCKASGYSFTTYWMNWVKQRPGQGLEWIGMIHPSDSETRLNQKFKDKATLTVDKSSSTAYMQLSSPTSEDSAVYYCARSTMIATRAMDYWGQGTSVTVSS
VL: DIVMTQSQKSMSTSVGDRVSITCKASQDVITGVAWYQQKPGQSPKLLIYSASYRYTGVPDRFTGSGSGTDFTFTISNVQAEDLAVYYCQQHYSTPLTFGAGTKLELK
notes: mouse anti-human CS1 monoclonal, IgG2b; also called Luc90.H1; Luc90H1
B2: Luc63 (antibody, V domains shown)
VH: EVKLLESGGGLVQPGGSLKLSCAASGFDFSRYWMSWVRQAPGKGLEWIGEINPDSSTINYTPSLKDKFIISRDNAKNTLYLQMSKVRSEDTALYYCARPDGNYWYFDVWGAGTTVTVSS
VL: DIVMTQSHKFMSTSVGDRVSITCKASQDVGIAVAWYQQKPGQSPKLLIYWASTRHTGVPDRFTGSGSGTDFTLTISNVQSEDLADYFCQQYSSYPYTFGGGTKLEIK
notes: mouse anti-human CS1 monoclonal, IgG2a; also called MuLuc63; muLuc63
B3: Luc69 (antibody, V domains shown)
VH: QVQLQQSGPELVKPGASVKISCKASGYAFSNSWMNWVKQRPGQGLEWIGRIYPGDGDTKSNGKFKGKATLTADKSSRAAYMQLSSLTSVDSAVYFCARSTMIMTGAMDYWGQGTSVTVSS
VL: DIVMTQSHKFMSTSVGDRVIITCKASQDVSTAVAWYQQKPGQSPKLLIYSASFRYTGVPDRFTGSGSGTDFTFTVSSVQAEDLAVYYCQQHYSTPPYTFGGGTKLEIK
notes: mouse anti-human CS1 monoclonal
B4: HuLuc63 (antibody, human IgG1, V domains shown)
VH: EVQLVESGGGLVQPGGSLRLSCAASGFDFSRYWMSWVRQAPGKGLEWIGEINPDSSTINYAPSLKDKFIISRDNAKNSLYLQMNSLRAEDTAVYYCARPDGNYWYFDVWGQGTLVTVSS
VL: DIQMTQSPSSLSASVGDRVTITCKASQDVGIAVAWYQQKPGKVPKLLIYWASTRHTGVPDRFSGSGSGTDFTLTISSLQPEDVATYYCQQYSSYPYTFGQGTKVEIK
notes: human IgG1/κ, transiently expressed in 293-H cells; also called humanized Luc63
B5: Luc34 (antibody, V domains shown)
VH: QVQLQQSGAELARPGASVKLSCKASGYTFTSYWMQWVKQRPGQGLEWIGAIYPGDGDTRYTQKFKGKATLTADKSSSTAYMQLSSLASEDSAVYYCARGKVYYGSNPFAYWGQGTLVTVSA
VL: DIQMTQSSSYLSVSLGGRVTITCKASDHINNWLAWYQQKPGNAPRLLISGATSLETGVPSRFSGSGSGKDYTLSITSLQTEDVATYYCQQYWSTPWTFGGGTKLEIK
notes: mouse anti-human CS1 monoclonal; also called Luc34.1

Assays:
[1] = target: T1, hu25/mu75 chimeric CS1-Fc (human/mouse chimera; human, UniProt P01857-1 99-330 = IgG part, limits assumed); test: sandwich ELISA, captured chimeric CS1-Fc
T1 construct: domain: Fc

[2] = target: T2, mu25/hu75 chimeric CS1-Fc (human/mouse chimera; human, UniProt P01857-1 99-330 = IgG part, limits assumed); test: sandwich ELISA, captured chimeric CS1-Fc
T2 construct: domain: Fc

[3] = target: human CS1-Fc fusion protein (Biacore analyte) (human) (UniProt Q9NQ25); test: SPR (BIAcore 2000), antibody immobilised, CS1-Fc as analyte, bivalent analyte model
[4] = target: T3, CS1 ECD-myc-GPI (human, UniProt Q9NQ25 23-226, GPI linkage at the C-terminus); test: cell-based or functional assay
[5] = target: T4, CS1 ECD-Fcγ3 fusion protein (human, UniProt Q9NQ25 23-226); test: direct binding ELISA, plate coated with 1 μg/ml soluble human CS1-human Fcγ3 fusion protein
T4 construct: also called CS1-γ3; CS1-Fc-γ3; not shown: constant region of human IgG3 (human Fc-γ3) from the vector

[6] = target: T5, full-length wild-type human CS1 (human, UniProt Q9NQ25 23-335); test: FACS on K562 and Daudi cells
T5 construct: Native CS1 on K562 and Daudi cells, myeloma and B-cell lines, tonsil/synovial and patient plasma cells; also called SLAMF7; 19A

[7] = target: T6, human CS1-Fc fusion protein (Biacore analyte) (human, UniProt Q9NQ25 23-226, limits assumed); test: SPR (BIAcore 2000), antibody immobilised, CS1-Fc as analyte
T6 construct: kept apart; also called CS-Fc; not shown: Fc part

[8] = target: T4, CS1 ECD-Fcγ3 fusion protein; test: ELISA on CS1-γ3 fusion protein
[9] = target: T3, CS1 ECD-myc-GPI; test: FACS on NSO-CS1 transfectants

T1 sequence (P01857 other isoform, or with tags, fused parts or gaps mutant limits assumed): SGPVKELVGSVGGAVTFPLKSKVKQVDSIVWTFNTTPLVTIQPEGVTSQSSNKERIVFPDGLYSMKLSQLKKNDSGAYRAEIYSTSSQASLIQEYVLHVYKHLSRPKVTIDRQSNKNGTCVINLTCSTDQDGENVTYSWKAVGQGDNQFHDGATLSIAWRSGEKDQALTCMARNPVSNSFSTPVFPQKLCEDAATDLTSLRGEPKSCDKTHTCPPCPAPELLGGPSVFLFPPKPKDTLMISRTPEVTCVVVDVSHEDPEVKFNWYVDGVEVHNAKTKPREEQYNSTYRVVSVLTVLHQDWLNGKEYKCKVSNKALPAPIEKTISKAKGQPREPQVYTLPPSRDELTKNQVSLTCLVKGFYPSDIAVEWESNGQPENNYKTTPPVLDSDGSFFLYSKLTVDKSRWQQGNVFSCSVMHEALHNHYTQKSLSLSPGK
T2 sequence (P01857 other isoform, or with tags, fused parts or gaps mutant limits assumed): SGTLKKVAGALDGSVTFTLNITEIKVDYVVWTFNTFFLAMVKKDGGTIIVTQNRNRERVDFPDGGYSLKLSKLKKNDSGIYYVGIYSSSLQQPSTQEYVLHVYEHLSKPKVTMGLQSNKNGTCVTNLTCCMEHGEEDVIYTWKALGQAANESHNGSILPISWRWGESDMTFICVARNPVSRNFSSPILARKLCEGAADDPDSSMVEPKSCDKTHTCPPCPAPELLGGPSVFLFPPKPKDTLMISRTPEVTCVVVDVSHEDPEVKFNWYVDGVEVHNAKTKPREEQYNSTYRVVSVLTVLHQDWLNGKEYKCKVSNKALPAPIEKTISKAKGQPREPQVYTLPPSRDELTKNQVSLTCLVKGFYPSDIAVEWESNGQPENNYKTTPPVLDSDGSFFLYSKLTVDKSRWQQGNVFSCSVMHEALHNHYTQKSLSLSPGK

Row | Binder | binding result [1] | binding result [2] | EC50 [5] [µg/mL] | other results
1 | B1 | no binding (tested: 2 μg/ml) | no binding (tested: 2 μg/ml) | – | fold higher binding affinity than Luc34.1 [3]: 28 fold; fold higher binding affinity than Luc63.2 [3]: 5.5 fold; 細胞傷害性(%) (ADCC, LDH release, PBMC effectors 20:1) [4]: ~50%
2 | B2 | – | – | 0.0661 | –
3 | B3 | no binding (tested: 2 μg/ml) | no binding (tested: 2 μg/ml) | – | –
4 | B4 | – | – | 0.0701 | –
5 | B5 | no binding (tested: 2 μg/ml) | no binding (tested: 2 μg/ml) | – | binding result [6]: binds; binding result [7]: binds; binding result [8]: binds; binding result [9]: binds
